The values that follow come from patent US6767887.

One data set has as its target T1, GLP-1-(7-36)-NH2, P01275.
T1 chain: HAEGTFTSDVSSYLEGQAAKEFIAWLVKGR

Data set [1] concerns the target T2, [Ala^2,Nle^14,Arg^30]-Ex-3-(1-30)-NH2.
T2 chain: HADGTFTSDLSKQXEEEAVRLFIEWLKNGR

B1: dipeptidyl peptidase IV (protein)
chain: MKTPWKVLLGLLGAAALVTIITVPVVLLNKGTDDATADSRKTYTLTDYLKNTYRLKLYSLRWISDHEYLYKQENNILVFNAEYGNSSVFLENSTFDEFGHSINDYSISPDGQFILLEYNYVKQWRHSYTASYDIYDLNKRQLITEERIPNNTQWVTWSPVGHKLAYVWNNDIYVKIEPNLPSYRITWTGKEDIIYNGITDWVYEEEVFSAYSALWWSPNGTFLAYAQFNDTEVPLIEYSFYSDESLQYPKTVRVPYPKAGAVNPTVKFFVVNTDSLSSVTNATSIQITAPASMLIGDHYLCDVTWATQERISLQWLRRIQNYSVMDICDYDESSGRWNCLVARQHIEMSTTGWVGRFRPSEPHFTLDGNSFYKIISNEEGYRHICYFQIDKKDCTFITKGTWEVIGIEALTSDYLYYISNEYKGMPGGRNLYKIQLSDYTKVTCLSCELNPERCQYYSVSFSKEAKYYQLRCSGPGLPLYTLHSSVNDKGLRVLEDNSALDKMLQNVQMPSKKLDFIILNETKFWYQMILPPHFDKSKKYPLLLDVYAGPCSQKADTVFRLNWATYLASTENIIVASFDGRGSGYQGDKIMHAINRRLGTFEVEDQIEAARQFSKMGFVDNKRIAIWGWSYGGYVTSMVLGSGSGVFKCGIAVAPVSRWEYYDSVYTERYMGLPTPEDNLDHYRNSTVMSRAENFKQVEYLLIHGTADDNVHFQQSAQISKALVDVGVDFQAMWYTDEDHGIASSTAHQHIYTHMSHFIKQCFSLP
For the protein B1, the “Substrate for DDP-IV” value with GLP-1-(7-36)-NH2, P01275 is 50% proteolysis; in data set [1], “no proteolysis”.
